Reference: patent US5595904

Key:
[1] = molecular target: microtubule-associated protein 2 (MAP2)
[2] = molecular target: MBP
[3] = molecular target: extracellular signal-regulated kinase 1 (ERK1) (rat)

## extracellular signal-regulated kinase 1 (ERK1) (enzyme)
[1]
  specific activity with MAP2: 300 nmol/min/mg

## recombinant ERK2 (enzyme)
[2]
  specific activity (phosphorylation of substrate): 1 nmol/min/mg
[1]
  specific activity (phosphorylation of substrate): 1 nmol/min/mg

## catalytic subunit of phosphatase 2a (enzyme)
[3]
  specific activity of ERK1 with MAP2 after dephosphorylation: 4 nmol/min/mg
